Source: publication PMC7544213, “Weak binding to the A2RE RNA rigidifies hnRNPA2 RRMs and reduces liquid–liquid phase separation and aggregation”

Experiments:
Settings in all cases: protein: recombinant; tags: His tag removed by TEV; single strand
[1] = target: T1, hnRNPA2 1-189 (tandem RRMs) (UniProt P22626-2 1-189); assay: ITC; ITC: 20 mM NaPi pH 6.75, 150 mM NaCl, 25 C (also 20 mM KPi pH 6.75; 20 mM MES pH 6.7, 150 mM NaCl, 10 mM CaCl2); protein in syringe, RNA in cell
[2] = target: T1, hnRNPA2 1-189 (tandem RRMs); assay: ITC; 20 mM NaPi pH 6.75, 150 mM NaCl; N about 1; ITC: 20 mM NaPi pH 6.75, 150 mM NaCl, 25 C (also 20 mM KPi pH 6.75; 20 mM MES pH 6.7, 150 mM NaCl, 10 mM CaCl2); protein in syringe, RNA in cell
[3] = target: T1, hnRNPA2 1-189 (tandem RRMs); assay: ITC; 4600 uM protein, 115 uM RNA; N 0.785; ITC: 20 mM NaPi pH 6.75, 150 mM NaCl, 25 C (also 20 mM KPi pH 6.75; 20 mM MES pH 6.7, 150 mM NaCl, 10 mM CaCl2); protein in syringe, RNA in cell
[4] = target: T1, hnRNPA2 1-189 (tandem RRMs); assay: ITC; 20 mM KPi pH 6.75, no NaCl; N about 1; ITC: 20 mM NaPi pH 6.75, 150 mM NaCl, 25 C (also 20 mM KPi pH 6.75; 20 mM MES pH 6.7, 150 mM NaCl, 10 mM CaCl2); protein in syringe, RNA in cell
[5] = target: T1, hnRNPA2 1-189 (tandem RRMs); assay: ITC; 7000 uM protein, 800 uM RNA; N 0.921; ITC: 20 mM NaPi pH 6.75, 150 mM NaCl, 25 C (also 20 mM KPi pH 6.75; 20 mM MES pH 6.7, 150 mM NaCl, 10 mM CaCl2); protein in syringe, RNA in cell
[6] = target: T1, hnRNPA2 1-189 (tandem RRMs); assay: ITC; 7000 uM protein, 800 uM RNA; N 0.798; ITC: 20 mM NaPi pH 6.75, 150 mM NaCl, 25 C (also 20 mM KPi pH 6.75; 20 mM MES pH 6.7, 150 mM NaCl, 10 mM CaCl2); protein in syringe, RNA in cell

T1 sequence (P22626 other isoform, or with tags, fused parts or gaps): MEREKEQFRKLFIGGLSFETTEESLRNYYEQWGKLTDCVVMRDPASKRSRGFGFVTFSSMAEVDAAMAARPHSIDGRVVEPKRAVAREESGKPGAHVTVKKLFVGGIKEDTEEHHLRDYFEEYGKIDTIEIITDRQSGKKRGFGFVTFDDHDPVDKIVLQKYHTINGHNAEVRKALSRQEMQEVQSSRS

Binder | Kd [1] [µM] | Kd [2] [µM] | Kd [3] [µM] | Kd [4] [µM] | Kd [5] [µM] | Kd [6] [µM]
AAGGACUAGC (ssRNA) [Wu_10mer] | 0.228 ± 0.002 |  |  |  |  | 
GCCAAGGAGCC (ssRNA) [rA2RE11] |  | ~52 | 19.8 ± 0.4 | ~35 | 139 ± 10 | 143 ± 10
